The target of this assay is S-layer protein EA1 (Bacillus anthracis Sterne, UniProt P94217). As to the kind of experiment: SPR; […] (5 µg/ml in 10 mM sodium acetate pH 4.0); […], dissociation 10 min; […]. Conditions: both partners purified.

Consider five molecules from article PMC3295763 (PLoS ONE, 2012).

B1: sdAb C7 (VHH)
VHH: EVQLQASGGGLVQPGGSLNLSCAASGEILSFNSMGWYRQAPGKQCELVAVILSGFSPNYADSVKGRFTISRDGAKNTVFLRMNRLKPEDTADYYCAARFYGAIRDEQSVNYWGQGTRVTVSS
notes: source: E. coli Rosetta, periplasmic (pECAN45), purified (IMAC, Superdex 75)
Turning to B1, the equilibrium dissociation constant (Kd) was determined as 1.57 nM, the off-rate (koff) is 0.000248 s⁻¹ and the kon was 158000 M⁻¹ s⁻¹.

B2: sdAb A1 (VHH)
VHH: DVQLQASGGGLVQAGGSLELSCVVVGESIIDYQMAWFRQMVGREREFVAAITGDSHYSDYSASASGRFTISRDNAKKTVSLQMNHLKPEDTALYYCAARKGFGINRLSTAFDYWGHGTQVTVSS
notes: as for B1
As to B2, the Kd amounted to 0.305 nM, the koff came out at 0.000233 s⁻¹ and the on-rate (kon) came out at 766000 M⁻¹ s⁻¹.

B3: sdAb B2 (VHH)
VHH: EVQLQASGGGLVQAGGSLRLSCAASGHINIHYAMGWFRRAPGKEREFVAAVTWSGASTYYADSVKGRFTISRDNGGNTMFLQLDSLKPEDTATYYCAAQGALGRLTSASGYDYWGQGTQVTVSS
notes: as for B1
The molecule B3 returned a Kd of 6.17 nM, an off-rate (koff) of 0.00037 s⁻¹ and an on-rate constant (kon) of 60000 M⁻¹ s⁻¹.

B4: sdAb B12 (VHH)
VHH: DVQLQASGGGLAQPGGSLRLSCVASGSVSRLSRMGWYRQAPGKQRELVAYIWHDGDNSYMDSVKGRFTISRDNARDTAYLQMNSLKPEDTAVYYCNYYRVGSGDSWGQGIQVIVSS
notes: as for B1
In the case of B4, the Kd stood at 6.18 nM, the koff is 0.0015 s⁻¹ and the on-rate constant (kon) was 242000 M⁻¹ s⁻¹.

B5: sdAb G10 (VHH)
VHH: DVQLQASGGGLVQPGGSLKLSCVASGSTFSPDMMRWYRQAPGKQRDLVAWISTSGFTMYADSVKGRFTISRDNAKNTVYLQMNSLKPEDAAVYYCNANRFSGPDYWGQGMQVSVSS
notes: as for B1
Molecule B5 came in with a Kd of 2.04 nM, a koff of 0.000166 s⁻¹ and an on-rate constant (kon) of 81100 M⁻¹ s⁻¹.
